Experimental data reported in patent publication US12241099B2, “Peptide therapeutics for treating Alzheimer's disease and related conditions” (The Board of Regents of the University of Oklahoma, priority 2018, dated 2025).
Residues, ends and D or L forms follow the SMILES beside them. No end group written: not given here.

B1: CAP37: cationic antimicrobial protein of molecular weight 37 KDa, full-length, purified from human neutrophils (protein)
chain: IVGGRKARPRQFPFLASIQNQGRHFCGGALIHARFVMTAASCFQSQNPGVSTVVLGAYDLRRRERQSRQTFSISSMSENGYDPQQNLNDLMLLQLDREANLTSSVTILPLPLQNATVEAGTRCQVAGWGSQRSGGRLSRFPRFVNVTVTPEDQCRPNNVCTGVLTRRGGICNGDGGTPLVCEGLAHGVASFSLGPCGRGPDFFTRVALFRDWIDGVLNNPGP

Columns and labels:
[1] = target: T1, Aβ1-42 (Homo sapiens, UniProt P05067); test: ELISA binding of Aβ1-42 to plate-coated neutrophil proteins and derived peptides; details: for binding of Aβ1-42: 150 nM Aβ1-42, plate coated with protein/peptide at 5 μg/ml, no protease inhibitor; for binding of Aβ1-42 on addition of antiproteases: 1 mM PMSF (CAP37, NE) or 125 μM chymostatin (CG)
T1 sequence (P05067 672-713 limits assumed): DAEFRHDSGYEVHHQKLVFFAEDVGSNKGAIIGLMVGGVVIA
Method: CAP37, NE, and CG were purified from human neutrophils and purchased from Athens Research and Technology. BSA was from Sigma Aldrich. CAP37-derived peptides were synthesized by CS Bio Co with a purity >95%. Maxisorp plates from Nunc were coated with 100 μl neutrophil protein, peptide, or BSA diluted at 5 μg/ml in PBS with or without 1 mM PMSF purchased from Sigma Aldrich (for experiments with CAP37, NE, and BSA) or ±125 μM chymostatin purchased from Santa Cruz (for experiments with CG and BSA). Plate coating was done at room temperature for 2 hours with shaking and then at 4° C. overnight. Plates were washed three times in PBST (PBS+0.05% tween), then blocked with 3% BSA in PBST for 1 hour at room temperature with shaking. Plates were washed 3× in PBST, and 150 nM Aβ1-42 (purchased from Bachem and reconstituted in 1 mM NaOH) was added in 0.1% BSA in PBST and incubated 70 minutes at 37° C. Plates were then washed 4 times with PBST and monoclonal mouse anti-amyloid precursor protein/amyloid beta antibody, purchased from Cell Signaling Technology was added at a 1:500 dilution in 1% BSA in PBST and incubated for 1 hour at room temperature with shaking. Plates were washed 4× in PBST and donkey anti mouse HRP-conjugated secondary antibody from Jackson ImmunoResearch Laboratories was added at 1:10,000 in PBST and incubated 1 hour at room temperature with shaking, then washed 4 times in PBST. […] Sulfuric acid (5N) was added to each well to stop the reaction, and the absorbance at 492 nm was read on a Biotek Synergy II plate reader.

[2] = target: T1, Aβ1-42; test: Amyloid Beta (1-42) Thioflavin T fibrillation (aggregation) assay; type: biochemical; design: used to monitor the formation of Aβ1-42 peptide fibrils; purchased Anaspec; details: for inhibition of Aβ1-42 fibrillation (in words): increasing concentrations of peptide, Rfu; for molar ratio inhibitor/Aβ1-42 corresponding to IC50 of fibrillation: ratio at IC50
Method: The Amyloid Beta (1-42) Thioflavin T Aggregation Kit was purchased from Anaspec and used to monitor the formation of Aβ1-42 peptide fibrils, according to the manufacturer's instructions, with some modifications. Thioflavin T dye was diluted to 250 μM in fibrillation buffer A and kept in the dark until use. […] Neutrophil proteins were tested in the absence and presence of protease inhibitors. […] Chymostatin was dissolved in DMSO and used at 125 μM final concentration in reactions with CG. Reactions were pipetted up and down twice in the wells with a multichannel pipette to ensure mixing, and fluorescence (ΔEX=440 nm, ΔEm=485 nm) was read every 5 minutes for 3 hours on a BioTek Synergy 2 plate reader with Gen 5 software, with a sensitivity set at 65.

[3] = tested on: mouse neuroblastoma cell line Neuro-2a; test: Neurotoxicity assay of Aβ1-42 fibrils/oligomers (trypan blue cell death); type: cell-based; details: for effect on Aβ1-42 oligomer toxicity: oligomers formed 15 min in presence of increasing concentrations; for effect on Aβ1-42 oligomer toxicity / effect on toxicity of Aβ1-42 fibrils: 18 μM Aβ1-42 on cells, 24 hours; for effect on toxicity of Aβ1-42 fibrils: protein at IC50 of fibrillation pre-incubated with Aβ1-42 24 hours in fibrillation conditions; for concentration at which significant inhibition of oligomer toxicity starts: tested at 0.5, 1, 2 and 4-fold the fibrillation IC50
Method: A mouse neuroblastoma cell line Neuro-2a from ATCC was used for these experiments. Cells were grown and seeded in 96 well plates at 20,000 cells per well in complete medium (MEM α, nucleosides, no phenol red from Gibco, with 10% heat inactivated fetal bovine serum from Gibco, and penicillin/streptomycin from Lonza). At 24 hours after seeding, cells were washed with warmed MEM α, and then incubated in 90 μl MEM α+N2 Supplements+20 μl test sample (Aβ1-42 prepared as described below). Cells were incubated another 24 hours at 37° C., and then dislodged by pipetting up and down vigorously. 10 μl of cells were added to 10 μl trypan blue dye (0.4% solution) from BioRad, mixed and counted in a BioRad TC20 cell counter. The percent of living and dead cells was recorded for each well. In the case of the water and Triton X100 controls, 20 μl MEM α+N2 Supplements was added instead of the test sample and, just before counting the cells, 20 μl of medium was removed and replaced with 20 μl water or Triton X100 at a final concentration of 0.1%.
Monomeric Aβ1-42 (hexafluoroisopropanol treated Aβ1-42) from Bachem was reconstituted at 5 mM in anhydrous DMSO. Untreated Aβ1-42 from CS Bio was also used in these experiments. It was first treated with 1 mM in hexafluoroisopropanol from Sigma Aldrich, incubated 30 min at room temperature, and left open to dry in the fume hood overnight. It was then vacuum desiccated for 1 hour at room temperature. Dry films of Aβ1-42 were stored at −20° C. until use to keep it under a monomeric form. Aβ1-42 from CS Bio was also reconstituted in anhydrous DMSO at 5 mM before use.
To prepare the fibril and oligomer test samples, monomeric Aβ1-42 was placed under conditions favoring either formation of fibrils or oligomers. To form fibrils, 100 μM Aβ1-42 was added to Anaspec fibrillation buffer A±neutrophil protein, and incubated at 37° C. 24 hours before addition to the cells at a final concentration of 18 μM. Neutrophil proteins were used at Aβ/Protein ratios that led to 50% inhibition of fibrillation (IC50), previously determined for each protein in the fibrillation assay. To form oligomers, MEM α+N2 Supplements was used instead of the fibrillation buffer A±increasing concentrations of neutrophil protein or CAP37-derived peptide. Each mixture was then added to a tube containing freshly prepared Aβ1-42 in DMSO at a final concentration of 100 μM, and incubated 15 min at room temperature. These test samples were then tested on the cells at a final concentration of 18 μM.
Oligomers were formed by incubating 100 μM Aβ1-42 in MEMα+N2 Supplements at 4° C. for 3 days. […] Finally, these oligomers were added to neurons at a final concentration of 18 μM, and percent cell death was measured at 24 h.

Row | Molecule | binding of Aβ1-42 [1] | inhibition of Aβ1-42 fibrillation (in words) [2] | effect on Aβ1-42 oligomer toxicity [3] | also measured
1 | CG119-144 ΔR129V130: mutant CG-derived peptide, CG119-144 with positively charged R129 (and V130) deleted (GTLCTVAGWGSMRRGTDTLREVQL) | abolished the binding | no inhibitory effect |  | 
2 | 95-122 5RMP: 95-122 with two AEEA mini-PEG molecules and 4 arginines at the N-terminal end and one arginine at the C-terminal end (RRRRLDREANLTSSVTILPLPLQNATVEAGTRR; also: two AEEA mini-PEG molecules, place not given here) | does not interact | did not inhibit fibrillation |  | 
3 | GTRCQVAGWGSQRSGGRLSRFPRFVNV (Completely synthesized in the lab. Amino acids 120-146 of CAP37 protein.) [120-146 QR, wild-type CAP37-derived peptide, amino acids 120-146 of CAP37 protein] | binds |  |  | 
4 | 95-122: wild-type CAP37-derived peptide 95-122 (LDREANLTSSVTILPLPLQNATVEAGTR) | did not bind |  |  | 
5 | GTLCTVAGWGRVSMRRGTDTLRPRVQL (Completely synthesized in the lab. Peptide CG119-144.) [CG119-144 E141PR] | increased the binding | inhibitory effects |  | 
6 | CG: cathepsin G, full-length, purified from human neutrophils | stronger |  | significantly inhibited | binding of Aβ1-42 on addition of antiproteases [1]: not significantly changed; effect on toxicity of Aβ1-42 fibrils [3]: significant inhibition; concentration at which significant inhibition of oligomer toxicity starts [3]: 0.5 ×IC50
7 | NE: neutrophil elastase, full-length, purified from human neutrophils | almost undetectable |  | significantly inhibited | binding of Aβ1-42 on addition of antiproteases [1]: significantly increased; effect on toxicity of Aβ1-42 fibrils [3]: significant inhibition; concentration at which significant inhibition of oligomer toxicity starts [3]: 2 ×IC50
8 | NQGRHFSGGALIHARFVMTAASCFQ (Completely synthesized in the lab. Peptide CAP3720-44C26S.) [20-44 SC, mutant CAP37-derived peptide 20-44] | binds |  |  | 
9 | GTLCTVAGWGRVSMRRGTDTLREVQL (Completely synthesized in the lab. Amino acids 119-144 of Cathepsin G protein.) [CG119-144] | Highest levels | no inhibitory effect |  | 
10 | NQGRHFCGGALIHARFVMTAASCFQ (Completely synthesized in the lab. Amino acids 20-44 of CAP37 protein.) [20-44 CC, wild-type CAP37-derived peptide, amino acids 20-44 of CAP37 protein] | binds |  |  | 
11 | CSCC[C@H](NC(=O)[C@H](CO)NC(=O)[C@@H](NC(=O)[C@H](CCCNC(=N)N)NC(=O)CNC(=O)[C@H](Cc1c[nH]c2ccccc12)NC(=O)CNC(=O)[C@H](C)NC(=O)[C@@H](NC(=O)[C@@H](NC(=O)[C@H](CS)NC(=O)[C@H](CC(C)C)NC(=O)[C@@H](NC(=O)CN)[C@@H](C)O)[C@@H](C)O)C(C)C)C(C)C)C(=O)N[C@@H](CCCNC(=N)N)C(=O)N[C@@H](CCCNC(=N)N)C(=O)NCC(=O)N[C@H](C(=O)N[C@@H](CCCNC(=N)N)C(=O)N[C@H](C(=O)N[C@@H](CC(C)C)C(=O)N[C@@H](CCCNC(=N)N)C(=O)N[C@@H](CCC(=O)O)C(=O)N[C@H](C(=O)N[C@@H](CCC(N)=O)C(=O)N[C@@H](CC(C)C)C(=O)O)C(C)C)[C@@H](C)O)[C@@H](C)O [CG119-144 D137R] (H-GTLCTVAGWGRVSMRRGTRTLREVQL-OH; N-terminus and C-terminus assumed) | increased the binding | inhibitory effects | significantly decrease | effect on neurotoxicity of preformed Aβ1-42 oligomers ([3]; oligomers formed first (3 days, 4° C.), then incubated with peptide at 2×IC50 for 3 days, 18 μM on neurons, cell death at 24 h): significantly reversed; molar ratio inhibitor/Aβ1-42 corresponding to IC50 of fibrillation [2]: 1/3
12 | B1 | stronger |  | does not inhibit | binding of Aβ1-42 on addition of antiproteases [1]: not significantly changed; effect on toxicity of Aβ1-42 fibrils [3]: no effect; molar ratio inhibitor/Aβ1-42 corresponding to IC50 of fibrillation [2]: 1/11
